Values quoted from earlier work as cited in PMC4152934.

Key:
AdipoR1 (Mus musculus) = AdipoR1 (Mus musculus) (UniProt Q91VH1)
AdipoR2 (Mus musculus) = AdipoR2 (Mus musculus) (UniProt Q8BQS5)
Sequence of UniProt Q8BQS5 (Q8BQS5 whole entry): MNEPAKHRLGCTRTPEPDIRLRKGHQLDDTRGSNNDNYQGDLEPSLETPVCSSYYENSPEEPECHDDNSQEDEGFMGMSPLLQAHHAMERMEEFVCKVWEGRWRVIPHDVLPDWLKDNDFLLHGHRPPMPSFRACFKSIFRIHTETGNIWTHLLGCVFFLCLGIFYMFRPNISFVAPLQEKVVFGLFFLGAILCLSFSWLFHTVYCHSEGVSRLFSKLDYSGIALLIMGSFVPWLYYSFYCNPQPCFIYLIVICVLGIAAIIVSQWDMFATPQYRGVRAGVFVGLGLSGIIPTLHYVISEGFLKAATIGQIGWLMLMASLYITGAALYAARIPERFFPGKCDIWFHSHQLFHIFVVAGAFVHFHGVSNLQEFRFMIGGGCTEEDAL

Sequence of UniProt Q91VH1 (Q91VH1 whole entry): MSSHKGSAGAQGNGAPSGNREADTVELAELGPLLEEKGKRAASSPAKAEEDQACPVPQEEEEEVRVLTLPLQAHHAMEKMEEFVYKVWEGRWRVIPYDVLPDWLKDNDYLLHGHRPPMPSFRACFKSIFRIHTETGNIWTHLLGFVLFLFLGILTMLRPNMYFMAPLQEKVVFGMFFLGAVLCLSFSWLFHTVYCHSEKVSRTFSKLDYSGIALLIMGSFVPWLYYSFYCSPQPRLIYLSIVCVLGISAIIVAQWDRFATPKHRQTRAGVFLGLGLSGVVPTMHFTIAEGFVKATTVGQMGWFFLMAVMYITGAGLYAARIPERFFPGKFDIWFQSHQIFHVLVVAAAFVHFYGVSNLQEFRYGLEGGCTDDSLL

Question: Which results are given for “globular adiponectin trimer globular domain (from UniProt Q60994)”?
Answer: Kd (AdipoR1 (Mus musculus)): 1.14 nM; Kd (AdipoR2 (Mus musculus)): 14.4 nM
